Source: patent US20030003547

Target: T1, RecA (UniProt P0A7G6)
T1 sequence: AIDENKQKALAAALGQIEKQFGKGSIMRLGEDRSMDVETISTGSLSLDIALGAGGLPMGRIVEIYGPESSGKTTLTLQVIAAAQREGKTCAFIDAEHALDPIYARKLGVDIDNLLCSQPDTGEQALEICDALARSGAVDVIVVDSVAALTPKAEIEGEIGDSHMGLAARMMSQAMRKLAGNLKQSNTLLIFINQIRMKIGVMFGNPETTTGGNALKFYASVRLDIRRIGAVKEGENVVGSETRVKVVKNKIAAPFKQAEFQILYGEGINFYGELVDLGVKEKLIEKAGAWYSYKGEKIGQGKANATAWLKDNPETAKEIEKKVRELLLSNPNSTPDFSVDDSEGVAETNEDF
Experiment: EMSA
Conditions: 5'-acridine; C5-propynyl-dU, 5-methyl-dC, 7-deaza-dG in TFO; triethyleneglycol spacer between TFO and adapter; with Y0Gorec plasmid, 15 uM RecA, ATPgammaS, ADP, 12.5 mM MgCl2; 22% without RecA; 100% of complex associated with plasmid in RecA reaction

## NNNNNTNTNNNGNGGNGCGCGTGGCCAGC [TFO1-S + R (GOREC with homologous 40-nt R)]
  activity (% joint molecules in 5 min): 80
